Experimental findings from paper PMC8456781, “Myosin-X and talin modulate integrin activity at filopodia tips” (Cell Reports, 2021) are described below.

Where no end group is shown, it is not given here.

T1: His-tagged MYO10^FERM (recombinant MYO10 MyTH4/FERM domain) (UniProt Q9HD67 1504-2058, RED-tris-NTA dye on the His tag (Monolith His-Tag Labeling Kit))
T1 construct: Vector pET151; also called recombinant MYO10^FERM; MYO10 FERM domain; source: E. coli BL-21(DE3), purified (Protino Ni-TED column)
T1 sequence (looked up): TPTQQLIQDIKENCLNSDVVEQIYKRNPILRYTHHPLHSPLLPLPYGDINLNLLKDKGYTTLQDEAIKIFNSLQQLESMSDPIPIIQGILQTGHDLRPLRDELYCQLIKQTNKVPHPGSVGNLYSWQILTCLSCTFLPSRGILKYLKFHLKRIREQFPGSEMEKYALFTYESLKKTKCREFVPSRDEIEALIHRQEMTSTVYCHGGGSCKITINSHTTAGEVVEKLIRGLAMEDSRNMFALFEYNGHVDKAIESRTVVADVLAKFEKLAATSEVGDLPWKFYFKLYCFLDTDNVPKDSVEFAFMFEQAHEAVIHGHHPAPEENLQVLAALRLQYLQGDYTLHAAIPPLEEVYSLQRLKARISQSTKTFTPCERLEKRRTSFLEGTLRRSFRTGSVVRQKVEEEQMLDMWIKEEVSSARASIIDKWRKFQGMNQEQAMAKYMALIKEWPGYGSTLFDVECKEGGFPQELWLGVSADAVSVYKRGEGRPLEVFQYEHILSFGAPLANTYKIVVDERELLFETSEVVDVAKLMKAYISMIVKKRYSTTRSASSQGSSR

T2: ITGA5 tail peptide (Homo sapiens)
T2 chain: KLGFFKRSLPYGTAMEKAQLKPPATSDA

B1: conserved region of the α2-integrin tail, peptide (peptide)
peptide: WKLGFFKRKYEKM
modifications: also: biotinylated, position not given here
notes: Integrin alpha-2 (ITGA2), conserved membrane-proximal region of the cytoplasmic tail; also called ITGA2^WT; ITGA2; source: synthetic peptide (custom, LifeTein)
B2: His-TLN1^FERM (recombinant talin-FERM domain) (domain or fragment)
chain: RPLKIRMLDGTVKTIMVDDSKTVTDMLMTICARIGITNHDEYSLVRELMEEKKDEGTGTLRKDKTLLRDEKKMEKLKQKLHTDDELNWLDHGRTLREQGVEEHETLLLRRKFFYSDQNVDSRDPVQLNLLYVQARDDILNGSHPVSFDKACEFAGFQCQIQFGPHNEQKHKAGFLDLKDFLPKEYVKQKGERKIFQAHKNCGQMSEIEAKVRYVKLARSLKTYGVSFFLVKEKMKGKNKLVPRLLGITKECVMRVDEKTKEVIQEWSLTNIKRWAASPKSFTLDFGDYQDGYYSVQTTEGEQIAQLIAGYIDIILKKK
modifications: RED-tris-NTA dye on the His tag (Monolith His-Tag Labeling Kit)
B3: wild-type β1-integrin tail peptide (peptide)
peptide: KLLMIIHDRREFAKFEKEKMNAKWDTGENPIYKSAVTTVVNPKYEGK
modifications: also: biotinylated, position not given here
notes: Integrin beta-1 (ITGB1) cytoplasmic tail; also called β-tail peptide; integrin β tail; source: synthetic peptide (custom, LifeTein)
B4: His-tagged MYO10^FERM (recombinant MYO10 MyTH4/FERM domain) (domain or fragment)
chain: T1 sequence (looked up)
modifications: RED-tris-NTA dye on the His tag (Monolith His-Tag Labeling Kit)

Experiment [1] has as its target T1, His-tagged MYO10^FERM (recombinant …). Put plainly: MST; His-tagged recombinant FERM domains labelled with RED-tris-NTA at 20 nM, integrin tail peptides at increasing concentration; three independent experiments pooled. As to conditions: both partners purified.
For experiment [2], the target named is B4. Put plainly: MST.
The next experiment concerns the target T2, ITGA5 tail peptide. Put plainly: MST.
The target of experiment [3] is T3, His-TLN1^FERM (recombinant talin-FERM domain) (UniProt P26039 86-403, RED-tris-NTA dye on the His tag (Monolith His-Tag Labeling Kit)).
T3 construct: Talin-1 (TLN1) FERM domain; source: E. coli BL-21(DE3), purified (Protino Ni-TED column)
In words: MST; His-tagged recombinant FERM domains labelled with RED-tris-NTA at 20 nM, integrin tail peptides at increasing concentration; three independent experiments pooled. Particulars: both partners purified.

As usually defined, the Kd is the constant that tells how readily two partners part at equilibrium. With B1, the binding result in experiment [1] is given as “binds”. Besides, in experiment [2], the dissociation constant (Kd) turned out to be 15.8 µM.
Consider B2, for which, in the experiment with ITGA5 tail peptide, the Kd turned out to be 557 µM.
Consider B3, for which the Kd came out at 4.7 µM in experiment [3] and 25.1 µM in experiment [1].
As to B4, binding in the experiment with ITGA5 tail peptide was characterised by a dissociation constant (Kd) of 18.3 µM.
